Patent US20090111098A1, “REPORTER GENE ASSAY” (Shionogi & Co., Ltd., priority 2005, published 2009)

Test system: IL-4 regulatory element (STAT6)
Assay: Confirmation of transcriptional regulatory activity: IL-4 stimulation of reporter-transfected HeLa cells, HTRF ratio value
Assay type: cell-based, human
Conditions: HeLa cells transfected with reporter plasmid; IL-4 0-100 ng/ml, 3-48 hours
Method: HeLa cells (cells deposited with ATCC) were dispersed at a density of 1.2×10^5 cells/ml in a medium (MEM medium containing 10% fetal bovine serum, 100 units/ml penicillin G, 100 μg/ml streptomycin) and then put in a volume of 100 μl per well on a 96-well tissue culture plate. After 24 hours, 20 μg of the reporter plasmid prepared in Example 1, and 60 μl FuGENE6 (Roche), were added to 2 ml FBS-free medium, then left at room temperature for 20 minutes, and added in a volume of 5 μl to each well, followed by incubation for 24 hours to transfect the cells with the reporter plasmid.
After the culture supernatant of the cells was removed, 100 μl of IL-4 diluted with a medium was added at final concentrations of 0, 4, 20 and 100 ng/ml respectively to the respective wells and cultured for 3, 6, 24 and 48 hours. After culture, a cell lysis buffer (Tris buffered physiological saline containing 1% Triton X-100, 5 mM EDTA and a protease inhibitor cocktail) was added in a volume of 100 μl to each well and left at room temperature for 1 hour. […] After the reaction was finished, the fluorescence intensity of each well at 665 nm was measured with a time-resolved fluorescence microplate reader (Rubystar, BMG Labtechnologies). The measurement value was expressed as the ratio value to the fluorescence intensity of cryptate at 620 nm.

B1: IL-4: cytokine that binds IL-4 receptors and activates JAK1/JAK3 and transcription factor STAT6 (protein, UniProt P05112 25-153, looked up)
Interleukin-4: HKCDITLQEIIKTLNSLTEQKTLCTELTVTDIFAASKNTTEKETFCRAATVLRQFYSHHEKDTRCLGATAQQFHRHKQLIRFLKRLDRNLWGLAGLNSCPVKEANQSTLENFLERLKTIMREKYSKCSS
- increase in ratio value by stimulation with IL-4: about 10 fold
